Where a chain is given by its changes, count along the chain named.
B1: LK-RB1-55 (antibody, human IgG4 S228P, kappa, V domains shown)
VH: EVKLVESGGGLVQPGGSLKLSCAASGFTFSDYYMYWVRQTPEKRLEWVAYISNGGDITFYPDTVKGRFTISRDNARSTLYLQMSRLKSEDTAIYYCASATTEVGAMDHWGQGTSVTVSS
VL: DIVMTQSQKFMSTTVGDRVSITCKASQNVGTAVAWYQQKPGKSPKLLIYAASNRYTGVPDRFTGSGSGTDFTLTISNMQSEDLADYFCQQYSSYRTFGGGTNLEIKR
B2: LK-RB1-48 (antibody, human IgG4 S228P, kappa, V domains shown)
VH: B1 VH with D56G, T58S, R76K, S77N, T101K, H108Y
VL: B1 VL with M11L, K42Q, L46I, A50S, N102K
B3: LK-RB1-57 (antibody, human IgG4 S228P, kappa, V domains shown)
VH: B1 VH with M83T
VL: B1 VL with M78V, N102S
B4: LK-RB1-22 (antibody, human IgG4 S228P, kappa, V domains shown)
VH: QVQLKESGPGLVAPSQSLSITCTVSGFSLTSYGVSWVRQPPGKGLEWLGIIWGDGNTNYHSALTSRLSISKDNSKSQVFLKLNSLRTDDTATYYCAKPHWDHYSMDYWGQGTSVTVSS
VL: DIQMTQTTSSLSASLGDRVTISCRASQDISNFLNWYQQKPDGTVKLLIYYTSRLHSGAPSRFSGSGSGTDYSLTISNLDQEDIATYFCQQGNTLPLTFGAGTKLELKR
B5: LK-RB1-26 (antibody, human IgG4 S228P, kappa, V domains shown)
VH: B4 VH with N56S, T64I, R86Q, H99N, H102Y, S104A
VL: B4 VL with V44F, Y49S, R53T, A58V, D79E, I83V, E105A
B6: LK-RB1-30 (antibody, human IgG4 S228P, kappa, V domains shown)
VH: B4 VH with V37I, I50V, T64I, R86Q, H99S, H102Y, S104A
VL: VIQMTQTTSSLSASLGDRVTISCRASQDISNYVNWYQQRPDGTVKLLISYTSRLHSGVPSRFSGSGSGTDYSLTITNLEQEDIATYFCQQGITLPCTFGGGTKLEINR
B7: LK-RB1-42 (antibody, human IgG4 S228P, kappa, V domains shown)
VH: QVQLQQPGAELVKPGTSVKLSCKASGYSFISYWVYWVKQRPGQGLEWIGMIHPNSGSTNFNEKFRYKATLTVDKSSSTAYIQLSSLTSEDSAVYYCGRSDDGYPYHAMDSWGQGTSVTVSS
VL: DIVMTQSQKFMSTSVGDRVSVTCKASQNVGTNVAWYQQKPGQSPKALIYSASYRFSGVPDRFTGSGSGTDFTLTIGNVQSEDLAEYFCHQYKNYPLTFGGGTKLEIKR
B8: LK-RB1-25 (antibody, human IgG4 S228P, kappa, V domains shown)
VH: QIQLVQSGPELKKPGETVKISCKASGYTFTSYGMNWMKQAPGEGLKWMGWINTYSGVPTYADDFKGRFAFSLETSATTVYLQINNLKNEDKATYFCARRGRDSVVGHFDVWGTGTTVTVSS
VL: DIVMTQSHKFMSTSVGDRVSITCKASQDVNTAVAWYQQKPGQSPKLLIYWASTRHTGVPDRFTGSGSGTDFTLTISSVQAEDLALYYCQQHYTIPFTFGSGTKLEIKR
B9: LK-RB1-38 (antibody, human IgG4 S228P, kappa, V domains shown)
VH: DVQLQESGPGLVQPSQSLSLTCSVTGYSITSGYQWNWIRQLPGNKLEWMAYISFDGSNNYNPSLKNRISITRDTSKNQFFLKLKSVTTEDTATYYCARRDYDGVAYWGQGTLVTVSA
VL: EIVLTQSPATLSVTPGDRVSLSCRASQNISNYLHWYQQKSHGSPRLIIKYASQSISGIPSRFSGSGSGTDFTLSINSVETEDFGMYFCQQSNSWPLTFGAGTKLELKR
B10: LK-RB1-44 (antibody, human IgG4 S228P, kappa, V domains shown)
VH: QVQLQQSGTELAKPGASVKLSCKASGYTFTNYWMHWIKQRPGQGLEWIGYVHPTSDYTKYNQKFKDKATLTADKSSSTAYMQLNSLTYEDSAVYYCTRSSLYDTNYVFDSWGQGTTLTVSS
VL: DILLTQSPAILSVSPGERVSFSCRASQSIGRSIHWFQQRTNGSPSLLIKYASESISGIPSRFSGGGSGTDFTLSISNVESEDIADYYCQQSNNWPFTFGSGTKLEIKR
B11: LK-RB1-45 (antibody, human IgG4 S228P, kappa, V domains shown)
VH: B10 VH with K13R, Y32F, H52N
VL: B10 VL with F36Y, S45R
B12: LK-RB1-23 (antibody, human IgG4 S228P, kappa, V domains shown)
VH: QVQLQQTGAELVRPGSSVKLSCKASGYTFTNYWMDWVKQRPGQGLEWIGNIHPFGNETHYNQKFKDKATLTVDKSSSTAYMQLSSLTSEDSAVYYCARGLLLYFDVWGTGTTVTVSS
VL: DIQMTQSPASQSVSVGETVTITCRASENIYSNLAWYQQKQGKSPQLLVYGATNLADGVSLRFSGSGSGTQYSLKINSLQSEDFGSYYCQHFWGIPWTFGGGTKLEIKR
B13: LK-RB1-27 (antibody, human IgG4 S228P, kappa, V domains shown)
VH: QVQLQQSGPELVKPGASVRMSCKASGYTFTSHYIHWMKQRPGQGLEWIGWIYPGDGHTKYHEKFKDRATLTADTSSITAYMRLSSLTSEDSAIYYCVYYSDSWFPYWGQGTLVTVSA
VL: B12 VL with Q11L, Q45H, G50A, S59P, L60S, S85N, I94S
B14: 12D12 (antibody, human IgG4 S228P, kappa, V domains shown)
VH: QVQLQQPGAELVKPGASVRMSCKASGYTFTSYWVHWVKQRPGQGLEWIGVIDPSDSYTSYNQNFKGKATLTVDTSSKTAYIHLSSLTSEDSAVYFCARGERYDGDYFAMDYWGQGTSVTVSS
VL: B12 VL with Q3V, Q11L, G50A, S59P, L60S, G66R, S85T, G93N, I94T, W96R
B15: LK-RB1-28 (antibody, human IgG4 S228P, kappa, V domains shown)
VH: B13 VH with A16T, R19K, E46D, D66G, R67K, R82Q, S85L, I93V
VL: B12 VL with Q11L, G50A, S59P, L60S, S85N, Y87F, I94S
B16: LK-RB1-24 (antibody, human IgG4 S228P, kappa, V domains shown)
VH: QVQLQQPGAELVNPGTSVNLSCKASGYTFTGYWMHWVKQRPGQGLEWIGMIHPNNGGTIYNERFNGKATLTVDRSSTTAYIQLSSLTSEDSAVYYCAYWDLDYWGQGTTLTVSS
VL: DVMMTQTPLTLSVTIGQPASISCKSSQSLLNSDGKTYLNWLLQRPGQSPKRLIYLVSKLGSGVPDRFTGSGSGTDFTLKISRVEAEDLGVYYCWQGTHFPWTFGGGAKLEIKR
B17: LK-RB1-35 (antibody, human IgG4 S228P, kappa, V domains shown)
VH: DVQLQESGPGLEKPSQSLSLTCSVTGYSITRGYQWNWIRQFPGNKLEWMGYISYDGSNNYNPSLKNRISITRDASKNQFFLKLNSVTTEDTATYYCARRSYNSIDYWGQGTTLTVSS
VL: B9 VL with E1D, R18S, N28S, N31S, Y32N, G42E, I47L
B18: LK-RB1-36 (antibody, human IgG4 S228P, kappa, V domains shown)
VH: B17 VH with T71I, A74T
VL: B9 VL with E1D, R18S, N28S, Y32N, G42E, I47L
B19: LK-RB1-46 (antibody, human IgG4 S228P, kappa, V domains shown)
VH: EVQLQQSGPELVKPGASVKISCKTSGYTFTDYYMNWVKQSHGKSLEWIGDIYPINGDISYNQKFKGKATLTVDKSSSTVYMEIRSLTYEDSAVYYCARLAQTTSGGFDYWGQGTTLTVSS
VL: DIVLTQSPTSLAVSLGQRAIISCKASQSVSFAGTSLMHWYQQKPGQQPKLLIYRASNLKAGVPTRFSGSGSRTDFTLNIHPVEEDDAATYYCQQSREYPMYTFGGGTKLEIKR
B20: LK-RB1-29 (antibody, human IgG4 S228P, kappa, V domains shown)
VH: QVQLKESGPGLVAPSQNLAITCTVSGFSLTNSGVSWVRQSPGKGLEWLGIIWGDGNTNYHSALISRLSISKDNSKSQVFLKLNSLQTDDTGTYYCAKPNWDYYALDYWGQGTSVTVSS
VL: DIQMTQTASSLFASLGDRVTISCRASQDISNYLNWYQQKPDGSIKLLISYTSRLHSGVPSRFSGSGSGTDYSLSISNLEQEDIATYFCQQGISLPCTFGGGTKLEVNR
B21: LK-RB1-34 (antibody, human IgG4 S228P, kappa, V domains shown)
VH: QVQLQQSGAELVKPGASVKLSCKASGYTFTEYTIHWVKQRSGQGLEWIGWFYPGSDSIKYNEKFKDKATLTADKSSSTVYMELSRLTSEDSAVYFCSRHEGPYFTSQYYFDYWGQGTTLTVSS
VL: DILLTQSPAILSVSPGERVSFSCRASRYIGTSIHWYQQRTNGSPRLLIKYASESISGIPSRFSGSGSGTDFTLSINSVESEDIADYYCQQSNTWPLTFGAGTKLELKR
B22: LK-RB1-37 (antibody, human IgG4 S228P, kappa, V domains shown)
VH: QVQLQQPGAELVKPGASVKLSCKASGYTFTSYWMHWVKQRPGRGPEWIGRIDPNSGYARYNEKFKNKATLTADKPSSTADMHLSSLTSEDSAVYYCTRSFITTAEWFFDVWGTGTTVTVSS
VL: B21 VL with R27Q, Y28S, T40R, A51T, T93S, L96H, A100G
B23: LK-RB1-43 (antibody, human IgG4 S228P, kappa, V domains shown)
VH: EFQLQQSGPELMKPGASVKISCKASGYSFTDYNMNWVKQSNGKSLEWIGIIDPNYGTTTYNQKFKGRATLTVDQSSNTAYMQLNSLTSEDSAVYYCAREGRYSWFAYWGQGTLVTVSA
VL: DIQMTQSPGALSVSVGETVTITCRASENINSNLAWYQQKQGKSPQLLVYAATNLADGVPSRFSGSGSGTQYSLKINSLQSEDFGSYHCQHFWGTPFTFGSGTKLEIKR
B24: LK-RB1-32 (antibody, human IgG4 S228P, kappa, V domains shown)
VH: QVQLQQSGAELAKPGASVKLSCTASGYTFTTYLMHWVKQRPAQGLEWIGYINPSNDFTKYNQKFKDKATLTADTSSSTAYMQLNSLTFEDSAVYYCARNSDYDPSYWGQGTTLTVSS
VL: DIQMTQSPASLSVSVGETVTITCRASENIYSSLAWYQQKQGKSPQLLVYAATNLADGVPSRFSGSGSGTQYSLKINSLQSEDFGNYYCQHFWGTWAFGGGTKLEIKR
B25: LK-RB2-32 (antibody, human IgG4 S228P, kappa, V domains shown)
VH: DVQLQESGPGLVKPSQSLSLTCSVTGYSITSGYYWNWIRQFPGNKLEWMGYISFDGSNHYNPSLRNRISITRDTFKNQFFLKLNSVTTEDTATFYCTRRDYNWFAYWGQGTLVTVSA
VL: DIVLTQSPVTLSVTPGDSVSLSCRASQNINKNLHWYQQRSHESPRLLIKYVSQSISGIPSRFSGSGSGTDFTLSINSVETEDFGMYFCQQSNSWPLTFGAGTKLELRR

These binders were tested against T1, human LILRB1 (human, UniProt Q8NHL6 24-458, limits assumed) (assay: Octet off-rate ranking;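 further: antibody dissociation rate constants against cynomolgus LILRB2 plus human LILRB1, LILRB2, LILRA1 and LILRA2, measured on an Octet instrument to rank binding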).
T1 construct: also called hLILRB1
T1 sequence (Q8NHL6 24-458 limits assumed): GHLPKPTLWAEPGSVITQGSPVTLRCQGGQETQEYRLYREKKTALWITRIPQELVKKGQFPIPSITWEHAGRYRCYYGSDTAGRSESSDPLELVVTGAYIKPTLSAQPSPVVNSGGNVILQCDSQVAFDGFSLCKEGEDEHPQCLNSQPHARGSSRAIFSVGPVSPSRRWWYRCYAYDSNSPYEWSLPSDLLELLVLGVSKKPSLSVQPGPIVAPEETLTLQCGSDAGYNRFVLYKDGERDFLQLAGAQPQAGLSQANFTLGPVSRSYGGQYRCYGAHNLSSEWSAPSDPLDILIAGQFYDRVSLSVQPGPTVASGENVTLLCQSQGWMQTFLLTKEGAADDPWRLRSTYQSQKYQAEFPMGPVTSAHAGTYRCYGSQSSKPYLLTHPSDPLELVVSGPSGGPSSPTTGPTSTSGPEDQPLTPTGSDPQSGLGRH
Source text: Binding affinity of anti-LILRB1 and anti-LILRB2 antibodies against human LILRB1, LILRB2, LILRA1, LILRA2 and cynomolgus LILRB2 was ranked by measuring dissociation rate constant (Kdis) using the Octet system.

| Binder | koff |
| --- | --- |
| B1 | < 1e-07 s⁻¹ |
| B2 | 8.47e-06 s⁻¹ |
| B3 | < 1e-07 s⁻¹ |
| B4 | 0.000416 s⁻¹ |
| B5 | 0.000155 s⁻¹ |
| B6 | 6.05e-05 s⁻¹ |
| B7 | 0.000139 s⁻¹ |
| B8 | 9.03e-05 s⁻¹ |
| B9 | 0.000532 s⁻¹ |
| B10 | 0.000559 s⁻¹ |
| B11 | 0.000611 s⁻¹ |
| B12 | 0.000477 s⁻¹ |
| B13 | 0.000112 s⁻¹ |
| B14 | 0.000338 s⁻¹ |
| B15 | 6.28e-05 s⁻¹ |
| B16 | 0.000987 s⁻¹ |
| B17 | 0.00116 s⁻¹ |
| B18 | 0.00121 s⁻¹ |
| B19 | 0.000739 s⁻¹ |
| B20 | 8.11e-05 s⁻¹ |
| B21 | 0.000222 s⁻¹ |
| B22 | 3.91e-05 s⁻¹ |
| B23 | 0.000364 s⁻¹ |
| B24 | 3.66e-05 s⁻¹ |

The binders below were run against T2, human LILRB1 expressed on CHOK1 cells (CHOK1-hLILRB1) (human, UniProt Q8NHL6 24-650) (assay: FACS binding to CHOK1-hLILRB1 cells).
T2 construct: whole, on cells; also called CHOK1-LILRB1
T2 sequence (Q8NHL6 24-650): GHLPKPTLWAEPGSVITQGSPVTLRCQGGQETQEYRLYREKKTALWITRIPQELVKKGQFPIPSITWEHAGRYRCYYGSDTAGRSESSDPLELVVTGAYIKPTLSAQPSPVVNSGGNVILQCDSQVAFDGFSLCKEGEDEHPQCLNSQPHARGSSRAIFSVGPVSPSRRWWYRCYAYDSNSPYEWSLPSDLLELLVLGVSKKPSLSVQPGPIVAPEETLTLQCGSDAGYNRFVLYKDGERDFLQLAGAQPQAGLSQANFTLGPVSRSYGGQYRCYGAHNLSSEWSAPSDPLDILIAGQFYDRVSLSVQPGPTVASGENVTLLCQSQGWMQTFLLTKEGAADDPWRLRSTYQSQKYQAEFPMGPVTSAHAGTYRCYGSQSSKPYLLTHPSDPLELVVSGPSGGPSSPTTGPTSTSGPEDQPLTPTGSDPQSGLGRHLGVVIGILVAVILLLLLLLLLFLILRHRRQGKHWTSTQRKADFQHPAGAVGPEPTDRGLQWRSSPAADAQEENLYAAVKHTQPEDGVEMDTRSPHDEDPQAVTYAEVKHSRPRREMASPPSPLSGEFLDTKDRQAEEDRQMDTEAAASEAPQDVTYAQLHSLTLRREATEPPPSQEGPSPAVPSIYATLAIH

| Binder | EC50 |
| --- | --- |
| B25 | 4.54 nM |

— patent publication US20260234247A1 (published 2026)
